Measurements from article PMC6530996, “HspB1 phosphorylation regulates its intramolecular dynamics and mechanosensitive molecular chaperone interaction with filamin C” (Science Advances, 2019).

Experiment: ion mobility collision cross-section
Format: physicochemical
Conditions: native IM-MS, N2, calibrated with β-lactoglobulin and avidin
Description: To isolate a stable HspB1-FLNCd18–21 complex and localize the binding within HspB1, we performed native ion mobility MS (IM-MS) experiments. […] Next, we mixed FLNCd18–21 with either HspB1_84–171 or peptides mimicking the PPR, because this region is phosphorylated in the MLP KO mice (Fig. 1C) and generally upon biomechanical stress ([26]) and becomes exposed thereafter. This strategy of using segments of HspB1 meant that we could avoid the problems of insolubilization of the full-length protein upon interaction with FLNC d18–21, as well as generally mitigate the confounding effects associated with the chaperone’s intrinsic polydispersity.
Because HspB1 can form disulfide-linked dimers, experiments involving the ACD were performed in the presence of 10-fold molar excess DTT. Gold-plated capillaries were prepared in-house. Native MS and IM-MS data were recorded on a Synapt G1 mass spectrometer (Waters) modified for the transmission of intact noncovalent protein complexes. HspB1_77–171 variants were analyzed at a concentration of 10 μM in 200 mM ammonium acetate (pH 6.9). […]
CCSs (Ω) of models from the PDB (trimmed in PyMOL as described in the Supplementary Materials) were calculated by the projection approximation method using IMPACT ([60]), accounting for N2 as the collision gas. […]

B1: FLNCd18–21: Human FLNC domains 18-21 (protein)
chain: TAKITGDDSMRTSQLNVGTSTDVSLKITESDLSQLTASIRAPSGNEEPCLLKRLPNRHIGISFTPKEVGEHVVSVRKSGKHVTNSPFKILVGPSEIGDASKVRVWGKGLSEGHTFQVAEFIVDTRNAGYGGLGLSIEGPSKVDINCEDMEDGTCKVTYCPTEPGTYIINIKFADKHVPGSPFTVKVTGEGRMKESITRRRQAPSIATIGSTCDLNLKIPGNWFQMVSAQERLTRTFTRSSHTYTRTERTEISKTRGGETKREVRVEESTQVGGDPFPAVFGDFLGRERLGSFGSITRQQEGEASSQDMTAQVTSPSGKVEAAEIVEGEDSAYSVRFVPQEMGPHTVAVKYRGQHVPGSPFQFTVGPLGEGGAHKVRAGGTGLERGVAGVPAEFSIWTREAGAGGLSIAVEGPSKAEIAFEDRKDGSCGVSYVVQEPGDYEVSIKFNDEHIPDSPFVVPVASLSDDA
modifications: left off: His6, C-terminal, state not stated | EEF, C-terminal, kept
- collision cross section (CCS): 37.2 ± 0.8 nm^2
